These results are taken from article doi:10.1101/2022.07.18.499583.

The target of this data set is NSP1 (SARS-CoV-2, UniProt P0DTD1 1-180). Kind of data set: BLI.

In turn, AACCAACUUUCGAUCUCUUGUAGAUCUGUUCU (structured_RNA) [SL2 (unmodified)] came in with an equilibrium dissociation constant (Kd) of 300 ± 54 nM.
